We go through one substance from PMC4726456.

In the assay the target is 15-residue tubulin peptide.

Consider “F105A TAT mutant (from UniProt Q5SQI0 1-421) (enzyme)”, for which the acetylation activity kept with a 15-residue tubulin peptide (data not shown) came out at 89 % activity.
